Reference: US7799901B2, “Modulators of the function of FAS receptors and other proteins” (Yeda Research and Development Co. Ltd., priority 1995, dated 2010)

Columns and labels:
[1] = target: T1, human CD40 IC (Homo sapiens, UniProt P25942); experiment: Two-hybrid β-galactosidase expression filter assay in SFY526 yeast, DNA-binding domain hybrid human CD40 IC; settings: specificity test
T1 construct: residues 216-277 of the intracellular domain of the human CD40; expressed in transfected cells; host or cells: SFY526 yeast
T1 sequence (P25942 216-277): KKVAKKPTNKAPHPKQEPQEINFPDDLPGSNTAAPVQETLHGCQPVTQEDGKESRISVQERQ
From the text: (§1) To isolate proteins interacting with the intracellular domain of the FAS-R, the yeast two-hybrid system was used (Fields and Song, 1989). […] In this system, the genes for the candidate interacting proteins are cloned into separate expression vectors. In one expression vector, the sequence of the one candidate protein is cloned in phase with the sequence of the GAL4 DNA-binding domain to generate a hybrid protein with the GAL4 DNA-binding-domain, and in the other vector, the sequence of the second candidate protein is cloned in phase with the sequence of the GAL4 activation domain to generate a hybrid protein with the GAL4-activation domain. The two hybrid vectors are then co-transformed into a yeast host strain having a lacZ or HIS3 reporter gene under the control of upstream GAL4 binding sites. […]
(§2) The yeast two-hybrid test was further applied to evaluate the specificity of binding of MACH to MORT-1, in particular, to define the region in MORT-1 to which MACH binds, as well as to determine which of the MACH ORFs interacts with MORT-1, the procedures being as set forth herein above in Examples 1 and 2. Briefly, various MORT-1 and MACH constructs were prepared for testing the interaction of the proteins encoded by the Gal4 DNA-binding domain and activation domain constructs within transfected SFY526 yeast cells as assessed by the β-galactosidase expression filter assay. […]

[2] = target: T2, human FAS DD (Homo sapiens, UniProt P25445); experiment: Two-hybrid β-galactosidase expression filter assay in SFY526 yeast, DNA-binding domain hybrid human FAS DD; settings: specificity test
T2 construct: the ‘death domain’ region of the intracellular domain of the human Fas-R (human Fas DD); expressed in transfected cells; host or cells: SFY526 yeast
T2 sequence (P25445 230-314 limits assumed): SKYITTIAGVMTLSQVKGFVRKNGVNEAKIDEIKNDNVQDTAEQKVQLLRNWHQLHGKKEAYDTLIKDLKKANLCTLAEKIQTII
From the text: as §1, §2

[3] = Two-hybrid β-galactosidase expression filter assay in SFY526 yeast, empty pGBT9 vector; type: binding; settings: negative control bait
From the text: as §1, §2

[4] = target: T3, human p75 IC (Homo sapiens, UniProt P20333); experiment: Two-hybrid β-galactosidase expression filter assay in SFY526 yeast, DNA-binding domain hybrid human p75 IC; settings: specificity test
T3 construct: residues 287-461 of the intracellular domain of the human p75 TNF-R; expressed in transfected cells; host or cells: SFY526 yeast
T3 sequence (P20333 287-461): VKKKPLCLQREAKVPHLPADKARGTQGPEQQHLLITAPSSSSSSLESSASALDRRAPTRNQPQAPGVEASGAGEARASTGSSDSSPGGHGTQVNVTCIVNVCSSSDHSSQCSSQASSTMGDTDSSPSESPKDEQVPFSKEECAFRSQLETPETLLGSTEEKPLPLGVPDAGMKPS
From the text: as §1, §2

[5] = target: T4, MORT-1 (Homo sapiens, UniProt Q13158, G32V); experiment: Two-hybrid β-galactosidase expression filter assay in SFY526 yeast, DNA-binding domain hybrid MORT-1; set-up: the full-length MORT-1 cDNA was used (MORT 1); expressed in transfected cells; host or cells: SFY526 yeast; settings: substance as activation domain hybrid
T4 sequence (Q13158 with tags, fused parts or gaps G32V): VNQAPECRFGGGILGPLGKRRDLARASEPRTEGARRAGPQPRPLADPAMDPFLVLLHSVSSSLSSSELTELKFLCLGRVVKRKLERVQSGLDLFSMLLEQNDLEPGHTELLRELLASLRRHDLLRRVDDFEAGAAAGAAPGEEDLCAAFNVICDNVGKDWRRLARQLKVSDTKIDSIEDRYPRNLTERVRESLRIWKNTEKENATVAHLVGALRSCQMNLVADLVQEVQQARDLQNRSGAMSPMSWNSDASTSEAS
From the text: as §1, with “sites. Only those transformed host cells (cotransformants) in which the two hybrid proteins are expressed and are capable of interacting with each other, will be capable of expressing the reporter gene.” for “sites.”
The yeast two-hybrid test was further applied to evaluate the specificity of binding of MACH to MORT-1, in particular, to define the region in MORT-1 to which MACH binds, as well as to determine which of the MACH ORFs interacts with MORT-1, the procedures being as set forth herein above in Examples 1 and 2. Briefly, various MORT-1 and MACH constructs were prepared for testing the interaction of the proteins encoded by the Gal4 DNA-binding domain and activation domain constructs within transfected SFY526 yeast cells as assessed by the β-galactosidase expression filter assay. […] In the assay, the development of color was determined, where the greater the color development, the greater the interaction between the constructs encoded by the DNA-binding domain and activation domain; Color development was depicted by symbols, where “+++” and “+” indicate the development of a strong color within 30 and 90 min. of the assay, respectively, and “−−−” indicates the lack of development of color within 24 hrs. of the assay. […]

[6] = tested on: HeLa cells; experiment: Ligand-independent cytocidal effect of MACH expression in HeLa cells, neutral red uptake; type: cell-based, human; settings: 48 hrs. after transfection, FIG. 6
Experimental: In order to test this possibility, constructs encoding MACH were prepared with a tetracycline-controlled expression vector (for details see Example 1). These constructs were used to transfect HeLa cells in which the vectors were transiently expressed. Besides the MACH constructs, other control constructs were used to evaluate the effect of transient expression on the viability of the HeLa cells to which the effect of the MACH constructs could be compared. These other constructs included MORT-1, human FAS-IC and luciferase (Luc). In addition, co-transfection of the HeLa cells was also tested by using MORT-1 and MACH constructs to determine what effects the interaction between these proteins would cause. After transfection the HeLa cells were incubated and cell viability was evaluated 48 hrs. after transfection either in the presence or the absence of tetracycline (1 μg/ml) to block expression. Cell viability was determined by the neutral red uptake assay.
The results are shown in FIG. 6, which depicts graphically the ligand-independent triggering of cytocidal effects in cells transfected with MACH in comparison to cells transfected with constructs encoding the other proteins as well as cotransfected cells (MORT1+MACH). […]

[7] = target: T5, MORT1DD (130-245) (Homo sapiens, UniProt Q13158); experiment: Two-hybrid β-galactosidase expression filter assay in SFY526 yeast, DNA-binding domain hybrid MORT1DD (130-245)
T5 construct: 130-245 MORT-1; expressed in transfected cells
T5 sequence (Q13158 82-197): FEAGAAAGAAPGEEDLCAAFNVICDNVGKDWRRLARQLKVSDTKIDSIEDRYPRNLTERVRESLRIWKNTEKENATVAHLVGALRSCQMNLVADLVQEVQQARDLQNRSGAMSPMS
From the text: as §1, §2

[8] = tested on: Lamin; experiment: Two-hybrid β-galactosidase expression filter assay in SFY526 yeast, DNA-binding domain hybrid Lamin; settings: specificity test
From the text: as §1, §2

B1: MACH: MORT-1 associated CED3 homolog; full-length MACH cDNA construct; protein later renamed MACHβ1 (protein)
chain: MDFSRNLYDIGEQLDSEDLASLKFLSLDYIPQRKQEPIKDALMLFQRLQEKRMLEESNLSFLKELLFRINRLDLLITYLNTRKEEMERELQTPGRAQISAYRVMLYQISEEVSRSELRSFKFLLQEEISKCKLDDDMNLLDIFIEMEKRVILGEGKLDILKRVCAQINKSLLKIINDYEEFSKERSSSLEGSPDEFSNDFGQSLPNEKQTSGILSDHQQSQFCKSTGESAQTSQH
- development of color (interaction with DNA-binding domain hybrid) [1]: −−− (“−−−” indicates the lack of development of color within 24 hrs. of the assay)
- development of color (interaction with DNA-binding domain hybrid) [2]: −−− (“−−−” indicates the lack of development of color within 24 hrs. of the assay)
- development of color (interaction with DNA-binding domain hybrid) [3]: −−− (“−−−” indicates the lack of development of color within 24 hrs. of the assay)
- development of color (interaction with DNA-binding domain hybrid) [4]: −−− (“−−−” indicates the lack of development of color within 24 hrs. of the assay)
- development of color (interaction with DNA-binding domain hybrid) [5]: +++ (“+++” and “+” indicate the development of a strong color within 30 and 90 min. of the assay, respectively)
- cytotoxic effect of induced overexpression in HeLa cells [6]: dramatic cytotoxic effect
- development of color (interaction with DNA-binding domain hybrid) [7]: −−− (“−−−” indicates the lack of development of color within 24 hrs. of the assay)
- development of color (interaction with DNA-binding domain hybrid) [8]: −−− (“−−−” indicates the lack of development of color within 24 hrs. of the assay)
